T1: human Trop2 recombinantly expressed on HEK293 cells (full-length, C-terminal Myc-DDK-tag) (human, UniProt P09758 27-323)
T1 construct: UniProt P09758 is printed for human TROP2; also called trophoblast cell-surface antigen 2; not shown: C-terminal Myc-DDK-tag of the Origene construct #RC202519
T1 sequence: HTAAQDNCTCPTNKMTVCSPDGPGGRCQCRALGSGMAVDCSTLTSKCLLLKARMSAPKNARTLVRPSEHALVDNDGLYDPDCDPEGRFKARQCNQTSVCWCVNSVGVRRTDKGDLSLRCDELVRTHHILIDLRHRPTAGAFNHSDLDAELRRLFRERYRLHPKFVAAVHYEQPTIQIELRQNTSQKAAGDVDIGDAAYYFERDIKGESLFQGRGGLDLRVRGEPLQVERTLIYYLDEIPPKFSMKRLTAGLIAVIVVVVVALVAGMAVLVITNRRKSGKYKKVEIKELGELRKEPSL

B1: Trop2#1 (antibody, V domains shown)
VH: EVQLQQSGPELLKPGASVKISCKASGYTFTDYTMHWVKQSHGKSLEWIGGIYPNYGDTNYNEKFKDKATLTVDESSSTAYMELRSLTSEDSAVYYCSRKTVLLRLRYFDVWGTGTTVTVSS
VL: DIQMTQSPASLSASVGETVTITCRASGNIHNYLAWYQQKQGKSPQLLVYNAITLADGVPSRFSGSGSGTQYSLKINSLQPEDFGSYYCQHFWSTPFTFGSGTKLEIK
B2: Trop2#7 (antibody, V domains shown)
VH: EVQLQQSGPELVKPGASVKMSCRASGYTFTSYAMHWVKQKPGQGLEWIGYINPYNGGTKYNEKFKGRATLTSDKSSSTAYMELSSLTSEDSAVYYCAREGIYYGAWFAYWGQGTLVTVSA
VL: DIQMTQSSSSFSVSLGDRVTITCKASEDIYNRLAWFQQKPGNAPRLLISGATSLETGVPSRFRGSRSGKDYTLSITSLQTEDVATYYCQQYWSTWTFGGGTKLEIK
B3: Trop2#5 (antibody, V domains shown)
VH: EVQLQQSGPDLVKPGASVKMSCKASGFIFTDYYMNWVKQSHGKSLEWIGYIYPNNGATAYNQKFKGKATLTVDKSSSTAYMELRSLTSEDSAVYYCARESDFYAMDYWGQGTSVTVSS
VL: DVVMTQTPLSLPVSLGDQASISCRSSQSLVHSHGNIYLHWYLQKPGLSPKLLIFKVSNRFSGVPDRFSGSGSGTDFTLKISRVEAEDLGVYFCSQSTHVWTFGGGTKLEIK

Molecular target: T1, human Trop2 recombinantly expressed on …
Assay: flow cytometry based Scatchard method on HEK293 cells expressing Trop2

Kd [nM] | Binder
2.2 | B1
0.4 | B2
0.6 | B3
